Measured values reported in patent publication US20090053184A1.

Legend:
Assay in all cases: chromium release; transduced lymphocytes against T2 cells having HLA-A2 pulsed with 'NY-ESO-1 peptide'; which of the listed peptides not given; full-length, on cells
Conditions in all cases: chains Valpha:Vbeta
[1] = biological target: T1, NY-ESO-1 peptide on HLA-A*02:01 (human)
T1 chain: SLLMWTTQCFLP

[2] = biological target: T2, NY-ESO-1 peptide on HLA-A*02:01 (human)
T2 chain: SLLMWTTQC

[3] = biological target: T3, NY-ESO-1 peptide on HLA-A*02:01 (human)
T3 chain: SLLMWTTQV

Measured: lowest peptide concentration that stimulated killing

B1: anti-NY-ESO-1 TCR (SEQ ID NOS: 6 and 8) (protein)
chain 1: SQQGEEDPQALSIQEGENATMNCSYKTSINNLQWYRQNSGRGLVHLILIRSNEREKHSGRLRVTLDTSKKSSSLLITASRAADTASYFCATDGAGKSTFGDGTTLTVKP
chain 2: DAGVIQSPRHEVTEMGQEVTLRCKPISGHDYLFWYRQTMMRGLELLIYFNNNVPIDDSGMPEDRFSAKMPNASFSTLKIQPSEPRDSAVYFCASTIGAQPQHFGDGTRLSIL
< 0.02 nM: [1] | [2] | [3]
